Patent US20170051047A1 (CANGENE, published 2017)
Substitutions are numbered along the chain they refer to. Where two headings read alike, the source gives them in different places.

B1: CDR-huCAN20G2 (antibody, V domains shown)
VH: QVQLVQSGSELKKPGASVKVSCKASGYTFTNQGMNWVRQAPGQGLEWMGWINTNTGEPTYAQGFTGRFVFSLDTSVSTAYLQISSLKAEDTAVYYCYVNYDYYTMDFWGQGTTVTVSS
VL: DIQMTQSPSSLSASVGDRVTITCRASSSVISTYLNWYQQKPGKAPKLLIYSTSSLQSGVPSRFSGSGSGTDFTLTISSLQPEDFATYYCLQYHRSPRTFGGGTKVEIK
B2: CAN20G1 (antibody, V domains shown)
VH: QIQLVQSGPELKKPGETVKISCKASGYTFTNDGMNWVKQAPGKGLKWMGWINTNTGEPTYVEEFKGRFAFSLETSASTAYLQINNLKNEDTATYFCYVNYDYYTMDCWGQGTSVTVSS
VL: QVVLTQSPAIMSASLGERVTMTCTASSSVISSYLHWYQQKPGSSPKLWIYSTSTLASGVPARFSGSGSGTSYSLTISSMEAEDAATYYCLQYHRSPRTFGGGTKLEIK
B3: AVA-huCAN20G2 (antibody, V domains shown)
VH: B2 VH with D32Q, V61T, E62A, E63D, K65T, A76V, N85S, N88A, C107F, S113L
VL: DIQMTQSPSSLSASVGDRVTITCSASSSVISTYLNWYQQKPGKAPKVLIYSTSSLHSGVPSRFSGSGSGTDFTLTISSLQPEDFATYYCLQYHRSPRTFGQGTKVEIKR
B4: HE-huCAN20G2 (antibody, V domains shown)
VH: B2 VH with D32Q, V61T, E62A, E63D, K65T, A76V, N85S, N88A, C107F, S113L
VL: DVQLTQSPSIMSASLGDRVTMTCTASSSVISTYLHWYQQKPGSSPKLWIYSTSTLASGVPPRFSGSGSGTDYSLTISSMEPEDAATYYCLQYHRSPRTFGGGTKVEIKR
B5: CAN20G2 (antibody, V domains shown)
VH: B2 VH with L11V, D32Q, V61T, C107F
VL: B2 VL with E17D, S32T, A61P
B6: CAN20G8 (antibody, V domains shown)
VH: B2 VH with T28A, V61A
VL: B2 VL with T54I
B7: CAN20G5 (antibody, V domains shown)
VH: B2 VH with T28S, D32S, Q39E, V61A, K65M, M105I, C107Y
VL: B2 VL with V2I, I30Y, S32T, T54N, L90H

Legend:
[1] = biological target: T1, Clostridium difficile toxin A (whole toxin A) (Clostridium difficile, UniProt P16154 1-2710)
[2] = biological target: T1, Clostridium difficile toxin A (whole …); assay: cell-based or functional assay
[3] = biological target: T1, Clostridium difficile toxin A (whole …); remark: listed apart in the source
[4] = biological target: T2, Clostridium difficile toxin B (whole) (Clostridium difficile, UniProt P18177 2-2366); assay: Western blot
T2 construct: mature

Binder	Kd [1] [nM]	koff [1] [s⁻¹]	kon [1] [M⁻¹ s⁻¹]	EC50 Value (µg/mL), in vitro toxin A neutralization [2] [µg/mL]	Kd [3] [nM]	koff [3] [s⁻¹]	kon [3] [M⁻¹ s⁻¹]	binding result [4]
B1	0.8	5.41e-05	67600					
B2				0.17	1.79	0.000219	123000	no binding (tested: 1 µg/ml)
B3	1.33	9.02e-05	54500					
B4	0.332	3.14e-05	93900					
B5				0.0101				
B6				0.137	1.65	0.000216	131000	no binding (tested: 1 µg/ml)
B7				0.13	2.01	0.000168	83800	no binding (tested: 1 µg/ml)
